Laboratory results reported in patent publication US11653679B2, “High-purity steviol glycosides” (PureCircle Sdn Bhd, priority 2014, dated 2023).
Where a chain is given by its changes, count along the chain named.

B1: UGT76G1var76: UGT76G1 variant, mutations F22Y_A239I_L246F_I295M_R334K (protein, UniProt Q6VAB4 1-458, looked up, variant F22Y A239I L246F I295M R334K)
UDP-glycosyltransferase 76G1: MENKTETTVRRRRRIILFPVPYQGHINPILQLANVLYSKGFSITIFHTNFNKPKTSNYPHFTFRFILDNDPQDERISNLPTHGPLAGMRIPIINEHGADELRRELELLMLASEEDEEVSCLITDALWYFAQSVADSLNLRRLVLMTSSLFNFHAHVSLPQFDELGYLDPDDKTRLEEQASGFPMLKVKDIKSAYSNWQILKEILGKMIKQTKASSGVIWNSFKELEESELETVIREIPIPSFLIPFPKHLTASSSSLLDHDRTVFQWLDQQPPSSVLYVSFGSTSEVDEKDFLEMARGLVDSKQSFLWVVRPGFVKGSTWVEPLPDGFLGERGKIVKWVPQQEVLAHGAIGAFWTHSGWNSTLESVCEGVPMIFSDFGLDQPLNARYMSDVLKVGVYLENGWERGEIANAIRRVMVDEEGEYIRQNARVLKQKADVSLMKGGSSYESLESLVSYISSL
B2: UGT76G1var83: UGT76G1 variant, mutations I43V_Q342E_S357N_S375R_L379G (protein, UniProt Q6VAB4 1-458, looked up, variant I43V Q342E S357N S375R L379G)
UDP-glycosyltransferase 76G1: B1 UDP-glycosyltransferase 76G1 with Y22F, I43V, I239A, F246L, M295I, K334R, Q342E, S357N, S375R, L379G
B3: UGT76G1var89: UGT76G1 variant, mutations F41L_E229A_E231A_F265L_P272A (protein, UniProt Q6VAB4 1-458, looked up, variant F41L E229A E231A F265L P272A)
UDP-glycosyltransferase 76G1: B1 UDP-glycosyltransferase 76G1 with Y22F, F41L, E229A, E231A, I239A, F246L, F265L, P272A, M295I, K334R
B4: UGT76G1var85: UGT76G1 variant, mutations T284L_G348P_F377C_P382M_N409R (protein, UniProt Q6VAB4 1-458, looked up, variant T284L G348P F377C P382M N409R)
UDP-glycosyltransferase 76G1: B1 UDP-glycosyltransferase 76G1 with Y22F, I239A, F246L, T284L, M295I, K334R, G348P, F377C, P382M, N409R
B5: UGT76G1var88: UGT76G1 variant, mutations A239V_T284I_V310I_Q342K_L379A (protein, UniProt Q6VAB4 1-458, looked up, variant A239V T284I V310I Q342K L379A)
UDP-glycosyltransferase 76G1: B1 UDP-glycosyltransferase 76G1 with Y22F, I239V, F246L, T284I, M295I, V310I, K334R, Q342K, L379A
B6: UGT76G1var4: UGT76G1 variant, mutations E224D_E231A_F265I (protein, UniProt Q6VAB4 1-458, looked up, variant E224D E231A F265I)
UDP-glycosyltransferase 76G1: B1 UDP-glycosyltransferase 76G1 with Y22F, E224D, E231A, I239A, F246L, F265I, M295I, K334R
B7: UGT76G1var5: UGT76G1 variant, mutations F22Y_I373L_P382M (protein, UniProt Q6VAB4 1-458, looked up, variant F22Y I373L P382M)
UDP-glycosyltransferase 76G1: B1 UDP-glycosyltransferase 76G1 with I239A, F246L, M295I, K334R, I373L, P382M
B8: UGT76G1var79: UGT76G1 variant, mutations E224D_T284I_V366I_I373L_K393G (protein, UniProt Q6VAB4 1-458, looked up, variant E224D T284I V366I I373L K393G)
UDP-glycosyltransferase 76G1: B1 UDP-glycosyltransferase 76G1 with Y22F, E224D, I239A, F246L, T284I, M295I, K334R, V366I, I373L, K393G
B9: UGT76G1var92: UGT76G1 variant, mutations K303G_S357N_V366I_V394I_I407V (protein, UniProt Q6VAB4 1-458, looked up, variant K303G S357N V366I V394I I407V)
UDP-glycosyltransferase 76G1: B1 UDP-glycosyltransferase 76G1 with Y22F, I239A, F246L, M295I, K303G, K334R, S357N, V366I, V394I, I407V
B10: UGT76G1var80: UGT76G1 variant, mutations L243P_L379A_S389E_Q425E_Q432E (protein, UniProt Q6VAB4 1-458, looked up, variant L243P L379A S389E Q425E Q432E)
UDP-glycosyltransferase 76G1: B1 UDP-glycosyltransferase 76G1 with Y22F, I239A, L243P, F246L, M295I, K334R, L379A, S389E, Q425E, Q432E
B11: UGT76G1var93: UGT76G1 variant, mutations I43V_Q266E_S375M_S389E_V394I (protein, UniProt Q6VAB4 1-458, looked up, variant I43V Q266E S375M S389E V394I)
UDP-glycosyltransferase 76G1: B1 UDP-glycosyltransferase 76G1 with Y22F, I43V, I239A, F246L, Q266E, M295I, K334R, S375M, S389E, V394I
B12: UGT76G1var87: UGT76G1 variant, mutations S241I_L243A_V300A_F314S_N409R (protein, UniProt Q6VAB4 1-458, looked up, variant S241I L243A V300A F314S N409R)
UDP-glycosyltransferase 76G1: B1 UDP-glycosyltransferase 76G1 with Y22F, I239A, S241I, L243A, F246L, M295I, V300A, F314S, K334R, N409R
B13: UGT76G1var77: UGT76G1 variant, mutations A239V_F265I_I295T_D301N_K393G (protein, UniProt Q6VAB4 1-458, looked up, variant A239V F265I I295T D301N K393G)
UDP-glycosyltransferase 76G1: B1 UDP-glycosyltransferase 76G1 with Y22F, I239V, F246L, F265I, M295T, D301N, K334R, K393G
B14: UGT76G1var72: UGT76G1 variant, mutations T284L_D301N_K303G_S375R (protein, UniProt Q6VAB4 1-458, looked up, variant T284L D301N K303G S375R)
UDP-glycosyltransferase 76G1: B1 UDP-glycosyltransferase 76G1 with Y22F, I239A, F246L, T284L, M295I, D301N, K303G, K334R, S375R
B15: UGT76G1var81: UGT76G1 variant, mutations A33G_T263S_S274G_V279I_Y397E (protein, UniProt Q6VAB4 1-458, looked up, variant A33G T263S S274G V279I Y397E)
UDP-glycosyltransferase 76G1: B1 UDP-glycosyltransferase 76G1 with Y22F, A33G, I239A, F246L, T263S, S274G, V279I, M295I, K334R, Y397E

Experiment: Directed evolution of UGT76G1, Rebaudioside D to Rebaudioside M, round 1 (Example 26)
Format: biochemical
Conditions: 100 μL fresh lysate, 0.5 mM Rebaudioside D, 30° C., pH 7.2
Outline: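 Conversion and initial rate were determined by HPLC with CAD detection on samples taken at 2, 4, 7 and 24 h. Reactions ran at 30 °C in 50 mM phosphate buffer pH 7.2 with lysate, Rebaudioside D (0.5 mM), UDP-glucose (2.5 mM) and MgCl2 (3 mM).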
With B1 the “conversion Reb D to Reb M after 24 h” value was 2.6% and the initial rate was 7.2E+05 Reb M area/min. With B2 the “conversion Reb D to Reb M after 24 h” value was 0.5% and the initial rate was 4.3E+04 Reb M area/min. For B3, the “conversion Reb D to Reb M after 24 h” value was 1.2% and the initial rate was 2.1E+05 Reb M area/min. With B4 the “conversion Reb D to Reb M after 24 h” value was 1.8% and the initial rate was 4.0E+05 Reb M area/min. In the case of B5, the “conversion Reb D to Reb M after 24 h” value is reported as 1.6% and the initial rate is reported as 3.8E+05 Reb M area/min. Work on B6 yielded an initial rate of 8.6E+06 Reb M area/min. In the case of B7, the “conversion Reb D to Reb M after 24 h” value is reported as 3.5% and the initial rate is reported as 2.3E+06 Reb M area/min. For B8, the “conversion Reb D to Reb M after 24 h” value was 8.5% and the initial rate was 3.8E+06 Reb M area/min. For B9, the “conversion Reb D to Reb M after 24 h” value was 1.6% and the initial rate was 3.6E+05 Reb M area/min. With B10 the “conversion Reb D to Reb M after 24 h” value was 1.0% and the initial rate was 2.1E+05 Reb M area/min. For B11, the “conversion Reb D to Reb M after 24 h” value was 1.8% and the initial rate was 4.5E+05 Reb M area/min. B12 gave an initial rate of 2.1E+07 Reb M area/min. For B13, the “conversion Reb D to Reb M after 24 h” value was 1.9% and the initial rate was 4.4E+05 Reb M area/min. Molecule B14 has an initial rate of 9.1E+06 Reb M area/min. With B15 the “conversion Reb D to Reb M after 24 h” value was 15.0% and the initial rate was 6.5E+06 Reb M area/min.
